{"source": "paper PMC2626169", "about": "(Developmental biology, 2008)", "binders": {"B1": {"name": "SKR-1 (Skp1-related 1), wild type (natural protein, C. elegans, UniProt G5ECU1 1-176, looked up)", "chain": "MADQKKVSEAAKEREIKISSSDNEIFLVPRNVIRLSNTINTLLMDLGLDDEEGTNAEPIPVQNVTASILKKVISWCNHHHSDPISTEDSDNREKRTDDIGSWDVEFLKVDQGTLFELILAANYLDIKGLLDVTCKTVANMIKGKSPEEIRRTFNIKNDFTPEEEEQIRKENAWCED"}, "B2": {"name": "SKR-1(M140I) (natural protein, C. elegans, UniProt G5ECU1 1-176, looked up)", "chain": "B1 chain with M140I"}}, "key": {"SEL-10(G567E)": {"target": "T1, SEL-10(G567E) (C. elegans, UniProt Q93794 1-587, G567E)", "T1 sequence (looked up)": "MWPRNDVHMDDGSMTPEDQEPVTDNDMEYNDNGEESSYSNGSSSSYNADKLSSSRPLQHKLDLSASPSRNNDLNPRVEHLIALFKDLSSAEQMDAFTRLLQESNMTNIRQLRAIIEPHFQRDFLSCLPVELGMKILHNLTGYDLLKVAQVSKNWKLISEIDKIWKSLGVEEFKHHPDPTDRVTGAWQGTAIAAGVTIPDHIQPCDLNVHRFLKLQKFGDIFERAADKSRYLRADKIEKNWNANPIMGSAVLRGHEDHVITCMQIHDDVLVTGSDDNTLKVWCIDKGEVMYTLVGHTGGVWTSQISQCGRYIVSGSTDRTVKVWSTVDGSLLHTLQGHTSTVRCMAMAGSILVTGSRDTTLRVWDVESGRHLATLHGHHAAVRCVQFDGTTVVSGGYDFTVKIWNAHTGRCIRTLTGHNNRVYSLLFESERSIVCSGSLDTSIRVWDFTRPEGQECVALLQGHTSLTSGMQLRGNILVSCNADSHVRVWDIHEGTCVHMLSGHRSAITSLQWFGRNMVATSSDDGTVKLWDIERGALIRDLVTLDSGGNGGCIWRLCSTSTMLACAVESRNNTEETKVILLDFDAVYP", "experiment": "two-hybrid"}, "SEL-10, wild type": {"target": "T2, SEL-10, wild type (C. elegans, UniProt Q93794 1-587)", "T2 sequence (looked up)": "T1 sequence (looked up) with E567G", "experiment": "two-hybrid"}}, "note": "Numbering of substitutions follows the chain as printed. Names may count otherwise.", "data": [{"binder": "B1", "values": [{"measurement": "beta-galactosidase activity (CPRG), percent of SKR-1/SEL-10", "setting": "SEL-10(G567E)", "value": 3, "unit": "%"}]}, {"binder": "B2", "values": [{"measurement": "beta-galactosidase activity (CPRG), percent of SKR-1/SEL-10", "setting": "SEL-10, wild type", "value": 37, "unit": "%"}, {"measurement": "beta-galactosidase activity (CPRG), percent of SKR-1/SEL-10", "setting": "SEL-10(G567E)", "value": 0.4, "unit": "%"}]}]}
